Series [1] concerns the molecule itself. The series can be described thus: DSG crosslinking, SDS-PAGE, self-association. The text has this:
(§1) The crosslinking covalently traps Ref in oligomeric states. […] Cys11 is responsible for dimerization of the P1 Ref protein.
Upon amino acid sequence analysis of P1 WT and φW39 WT, we noticed that P1 Ref contains Cys11 while φW39 Ref contains Arg11.

Series [2] deals with the molecule itself. Nature of the series: gel filtration (Superdex 200), self-association, Example 4. Background: Size exclusion chromatography separates by hydrodynamic size, large species first.
Series [3] concerns the molecule itself. The series can be described thus: ultracentrifugation, self-association (dimerization).
Series [4] deals with the molecule itself. The series can be described thus: DSG crosslinking, SDS-PAGE (FIG. 7), self-association.
Excerpt: as §1
In order to determine the role of Cys11, a φW39 R11C variant was constructed and purified. […] The truncation variants' monomeric state was verified by analytical size exclusion (FIG. 9).

B1: P1 ΔN76 Ref (enzyme)
chain: GRTPTAEERRIANALGALPCIACYMHGVISNEVSLHHIAGRTAPGCHKKQLPLCRWHHQHAAPAEVREKYPWLVPVHADGVVGGKKEFTLLNKSEMELLADAYEMANIMH
notes: Purified as in Gruenig et al 2011; The range 77-186 is derived from the name ΔN76
In the case of B1, the binding result in series [1] was “no binding”.

B2: φW39 ΔN21 Ref (enzyme)
chain: AIARQREKLADPAWRESQYQKMRDSIDRRIAKQKERPPASKTRKSAVKIKSRGLKGRTPTAEERTIANALGTLPCIACYMHGVISEEVSLHHISGRTAPGCHKKQLPLCRWHHQHAAPAEVREKYPWLVPVHADGVVGGKKEFTLLNKSEMELLADAYEMANIMH
notes: Plasmid pEAW886; The construct starts with a Met codon from the NdeI site
B2: in series [2], the “apparent molecular mass by gel filtration” value (“apparent molecular mass” below) amounted to 33.6 kDa.

B3: φW39 ΔN47 Ref (enzyme)
chain: DRRIAKQKERPPASKTRKSAVKIKSRGLKGRTPTAEERTIANALGTLPCIACYMHGVISEEVSLHHISGRTAPGCHKKQLPLCRWHHQHAAPAEVREKYPWLVPVHADGVVGGKKEFTLLNKSEMELLADAYEMANIMH
notes: Plasmid pEAW865; The construct starts with a Met codon from the NdeI site
For B3, the “apparent molecular mass” value in series [2] stood at 27.6 kDa.

B4: P1 wild type Ref (bacteriophage P1 full length Ref protein) (enzyme)
chain: MKTIEQKIEQCRKWQKAARERAIARQREKLADPVWRESQYQKMRDTLDRRIAKQKERPPASKTRKSAVKIKSRGLKGRTPTAEERRIANALGALPCIACYMHGVISNEVSLHHIAGRTAPGCHKKQLPLCRWHHQHAAPAEVREKYPWLVPVHADGVVGGKKEFTLLNKSEMELLADAYEMANIMH
notes: Full-length native protein purified from E. coli; The dimer is reported to be held by a Cys11 disulfide bond
With B4, the binding result in series [3] is “binds”.

B5: φW39 wild type Ref (φW39 phage full length Ref protein) (enzyme)
chain: MKTIEQKLEQRREWQKAARERAIARQREKLADPAWRESQYQKMRDSIDRRIAKQKERPPASKTRKSAVKIKSRGLKGRTPTAEERTIANALGTLPCIACYMHGVISEEVSLHHISGRTAPGCHKKQLPLCRWHHQHAAPAEVREKYPWLVPVHADGVVGGKKEFTLLNKSEMELLADAYEMANIMH
notes: Full-length native protein
As for B5, the “apparent molecular mass” value in series [2] was 35 kDa.

B6: φW39 R11C Ref (enzyme)
chain: MKTIEQKLEQCREWQKAARERAIARQREKLADPAWRESQYQKMRDSIDRRIAKQKERPPASKTRKSAVKIKSRGLKGRTPTAEERTIANALGTLPCIACYMHGVISEEVSLHHISGRTAPGCHKKQLPLCRWHHQHAAPAEVREKYPWLVPVHADGVVGGKKEFTLLNKSEMELLADAYEMANIMH
notes: Plasmid pEAW933; Full-length variant
For the protein B6, in series [4], the binding result is recorded as “binds”.
